Laboratory results taken from US20210340232A1, “MONOCLONAL ANTIBODIES AGAINST HUMAN DICKKOPF3 AND USES THEREOF” (Board of Regents, The University of Texas System, priority 2018, published 2021).
Entries after “also recorded” stand apart in the source; their conditions may differ.

Experiments:
murine DKK3 = murine DKK3 (Mus musculus, UniProt Q9QUN9); assay: Non-denaturing Western blot of recombinant DKK3 with JM6-6-1; assay type: binding
Protocol: FIGS. 12A-D. DKK3 expression in mouse PSCs and effects of treatment with DKKC mAb on survival. (FIG. 12A) Western blot analysis of recombinant human and mouse DKK3 under denaturing and non-denaturing conditions using JM6-6-1 mAb. (FIG. 12B) Expression of murine DKK3 in murine PSCs (MPSC) or 3T3 cells was determined by RT-PCR. 18S was used as loading control. (FIG. 12C) Proliferation of MPSCs treated with DKK3 mAb was measured at 7 days by MTS assay. ***p<0.001 vs. PBS. (FIG. 12D) Pdx1-Cre; Kras LSL-G12D;Trp53fl/+ model of PDAC was treated with DKK3 mAb JM6-6-1 or control mAb JM4-74 (5 mg/kg i.p. q5d). Kaplan-Meier survival curves are shown (log rank test). At 0% survival, the right line is JM6-6-1, the middle lines is PBS, and the left line is Control Ab.
Human and murine DKK3 share 83% protein sequence homology by BLAST analysis and therefore it was anticipated that it was likely that JM6-6-1 could cross-react with host DKK3. […] When KPC mice (P48-Cre; Kras^LSL-G12D;Trp53^fl/fl) were treated with JM6-6-1 (red solid line, FIG. 5H), median survival increased by 43% from 43 to 61.5 days compared to PBS or isotype control mAb (p=0.005, HR 0.24, 95% CI 0.01-0.30; FIG. 5H).

KPC model of PDAC = assay: Survival of KPC mice (P48-Cre; Kras LSL-G12D;Trp53fl/fl) with wild type DKK3; assay type: in vivo, mouse
Protocol: HPSCs and BxPC3 cells were treated with DKK3 mAb clones JM6-6-1 and JM8-12-1 or isotype control mAb or PBS. (FIGS. 5A-B) HPSC apoptosis and migration as measured by FACS and Transwell migration assay at 48 hours. (FIG. 5C) BxPC3 migration in response to rhDKK3 10 μg/ml as measured by Transwell migration assay at 48 hours. (FIG. 5D) BxPC3 resistance to gemcitabine 100 μM as measured by MTS proliferation assay at 6 days. HPSC-CM, pancreatic stellate cell conditioned media, 10 μg/ml. The orthotopic co-injection BxPC3+ HPSC model of PDAC was used to test the efficacy of DKK3 mAb clones JM6-6-1 or JM8-12-1 (5 mg/kg i.p. once every 5 days). (FIG. 5E) Overall tumor progression was measured every 3-4 days by IVIS imaging. (FIG. 5F) Metastatic tumors in the peritoneal cavity after removal of the primary pancreatic tumor are shown by IVIS imaging. (FIG. 5G) Kaplan Meier survival curve showing mice treated with DKK3 mAb clone JM8-12 (right-most line), control mAb (middle line), or PBS (left-most line). (FIG. 5H) KPC mice (P48-Cre; Kras LSL-G12D;Trp53fl/fl) with either wild type DKK3 (solid lines) or deficient in DKK3 (“DKK3-KO,” dashed lines) were treated with DKK3 mAb JM6-6-1 (5 mg/kg i.p. once every 5 days), PBS or control mAb. Kaplan Meier survival curve is shown with hazard ratios (Log-rank test). *p<0.05, **p<0.01, ***p<0.001, ****p<0.0001 vs. control Ab.
Two GEMMs of PDAC that differ in the pancreas-specific promoter to target oncogenic Kras expression (Hingorani et al., 2005; Hingorani et al., 2003) were used in the experiments to evaluate the effect of DKK3 neutralizing mAb (Pdx1-Cre; Kras^LSL-G12D; Trp53^R172H/+ and P48-Cre; Kras^LSL-G12D; Trp53^fl/fl). To evaluate the effects of genetic ablation of DKK3 on pancreatic cancer development, DKK3-null mice were crossed to P48-Cre; Kras^LSL-G12D;Trp53^R172H or P48-Cre; Kras^LSL-G12D; Trp53^fl/fl mice (Hingorani et al., 2005; Hingorani et al., 2003), and the progeny were monitored until they were moribund. Tissue and blood samples were collected after the mice were euthanized. […]

4T1 TNBC cells = assay: 4T1 orthotopic mouse model of TNBC; assay type: in vivo
Protocol: (FIG. 13A) DKK3 expression was measured by RT-PCR in TNBC fibroblasts (BCF), human pancreatic stellate cells (HPSC) from pancreatic adenocarcinoma (PDAC), BxPC (PDAC cancer cell) and water control. (FIG. 13B) DKK3 protein was measured by Western blotting in BCF from TNBC, in ER-positive breast cancer cells, and in TNBC cancer cell lines. (FIG. 13C) DKK3 protein was measured in patient-derived xenograft (PDX) tumors from TNBC relative to recombinant human DKK3 (rhDKK3) and conditioned medium from HPSC (HPSC-CM). Actin was used as loading control. […] Data is pooled from TCGA, EGA and GEO.
FIGS. 14A-C. Treatment of TNBC orthotopic model with DKK3 mAb. […] Tumor growth was measured by calipers at day 33 after starting treatment and compared to initial tumor size prior to treatment. (FIG. 14B) 4T1 primary tumors and metastases were imaged using IVIS at day 33 after starting treatment. (FIG. 14C) Luciferase signal from 4T1 metastases was measured by IVIS at day 33 after starting treatment.
Treatment of TNBC orthotopic models with DKK3 mAb was also tested. An orthotopic model using 4T1 TNBC cells labeled with firefly luciferase was treated with PBS, a control antibody, or JM6-6-1. […] The mice were also imaged to detect the primary tumors and any metastases (FIG. 14B).

[1] = JM6-6-1 5 mg/kg i.p. once every 5 days

Sequence of murine DKK3 (Q9QUN9 23-349): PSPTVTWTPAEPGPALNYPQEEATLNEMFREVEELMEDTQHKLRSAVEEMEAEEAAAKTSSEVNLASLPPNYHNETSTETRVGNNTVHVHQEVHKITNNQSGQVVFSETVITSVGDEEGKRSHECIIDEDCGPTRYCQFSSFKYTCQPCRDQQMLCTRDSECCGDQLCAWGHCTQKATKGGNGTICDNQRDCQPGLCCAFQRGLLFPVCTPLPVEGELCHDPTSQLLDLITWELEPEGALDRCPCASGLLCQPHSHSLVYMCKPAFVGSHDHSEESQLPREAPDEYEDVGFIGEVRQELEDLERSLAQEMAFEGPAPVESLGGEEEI

B1: JM6-6-1: monoclonal antibody against human DKK3; heavy chain variable SEQ ID NO: 19, light chain variable SEQ ID NO: 20 (antibody, V domains shown)
VH: EVKLVESGGGLVKPGGSLKLSCAASGFTFTIEYMAWIRQTPEKRLEWVASISSGGDDIYYADNVKGRFTISRDNAKNTLYLQMSSLKSEDTAIYYCSRSLSDWGQGTTLTVSSAKTTPPSDYPLA
VL: MTQTPLSLPVSLGDQASISCRSSQSILHSNGHTYLEWYLQKPGQSPKLLIYKVSNRFSGVPDRFSGSGSGTDFTLKISRVEAEDLGVYYCFQGSHVPFTFGSGTKLEIERADAAQ
- cross-reactivity with murine DKK3 (murine DKK3): recognizes murine DKK3 although more weakly than human DKK3
- hazard ratio (HR) compared to PBS or isotype control mAb (KPC model of PDAC; [1]): 0.24
- increase of median survival compared to PBS or isotype control mAb (KPC model of PDAC; [1]): 43%
- median survival (KPC model of PDAC; KPC mice with wild type DKK3): 61.5 days
- luciferase signal from 4T1 metastases (4T1 TNBC cells; 5 mg/kg ip q5 days, IVIS day 33): prevented metastases
- tumor size at day 33 after starting treatment compared to controls (4T1 TNBC cells; 5 mg/kg ip q5 days, calipers): significantly smaller
- survival relative to control antibody and PBS (4T1 TNBC cells; 4T1 mouse model of TNBC): improved survival; also recorded: increased survival
